± gives the uncertainty stated by the source.
Test: self-splicing fitness, log relative to wild type (ln ratio); higher = more splicing; Tetrahymena group I intron in knt gene, E. coli kanamycin selection, DiMSum; sequences stand for … in CUCUCU…GGAGGGAAAAGUUAUCAGGCAUGCACCUGGUAGCUAGUCUUUAAACCAAUAGAUUGCAUCGGUUUAAAAGGCAAGACCGUCAAAUUGCGGGAAAGGGGUCAACAGCCGUUCAGUACCAAGUCUCAGGGGAAACUUUGAGAUGGCCUUGCAAAGGGUAUGGUAAUAAGCUGACGGACAUGGUCCUAACCACGCAGCCAAGUCCUAAGUCAACAGAUCUUCUGUUGAUAUGGAUGCAGUUCACAGACUAAAUGUCGGUCGGGGAAGAUGUAUUCUUCUCAUAAGAUAUAGUCGGACCUCUCCUUAAUGGGAGCUAGCGGAUGAAGUGAUGCAACACUGGAGCCGCUGGGAACUAAUUUGUAUGCGAAAGUAUAUUGAUUAGUUUUGGAGUACUCGUGGUCG
Method in brief: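 DiMSum derived fitness as the error-weighted combination of fold changes across replicates, kanamycin versus no kanamycin, normalised to wild type. E. coli BL21(DE3) held the library, which randomised all eight P1ex-region intron nucleotides within the knt kanamycin-resistance gene on pET-22b(+). Six replicate transformations grew overnight at 37°C or 30°C on LB agar with or without 25 μg/mL kanamycin, also containing 100 μg/mL carbenicillin, 50 μM IPTG and 0.2% rhamnose, and pooled colonies were amplicon-sequenced on an Illumina HiSeq 2500.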

| Sequence | self-splicing fitness (ln) (30 °C) | self-splicing fitness (ln) (37 °C) |
| --- | --- | --- |
| UAUCAGCAAUAUUACGAUGA | -0.667 ± 0.075 | 0.19 ± 0.099 |
| UAUCAGCAAUAUUACGAUGC | -3.83 ± 0.37 | -1.82 ± 0.22 |
| UAUCAGCAAUAUUACGAUUC | -0.925 ± 0.081 | -0.0952 ± 0.092 |
| UAUCAGCAAUAUUACGCACA | -0.305 ± 0.087 | 0.32 ± 0.14 |
| UAUCAGCAAUAUUACGCAUC | -1.87 ± 0.085 | -0.409 ± 0.12 |
| UAUCAGCAAUAUUACGCCGC | -1.58 ± 0.19 | -2.02 ± 0.27 |
| UAUCAGCAAUAUUACGGACA | 0.27 ± 0.15 | -0.681 ± 0.17 |
| UAUCAGCAAUAUUACGGCGA | -0.382 ± 0.1 | 1.02 ± 0.13 |
| UAUCAGCAAUAUUACGGCUG | -3.56 ± 0.2 | -1.78 ± 0.15 |
| UAUCAGCAAUAUUACGGGAG | -1.83 ± 0.087 | -1.17 ± 0.098 |
| UAUCAGCAAUAUUACGGGUC | -2.27 ± 0.12 | -1.3 ± 0.12 |
| UAUCAGCAAUAUUACGGGUG | -0.736 ± 0.044 | -0.102 ± 0.064 |
| UAUCAGCAAUAUUACGGUCC | -2.18 ± 0.13 | -0.955 ± 0.19 |
| UAUCAGCAAUAUUACGGUGC | -3.27 ± 0.19 | -1.14 ± 0.14 |
| UAUCAGCAAUAUUACGUCCC | -2.83 ± 0.34 | 0.683 ± 0.26 |
| UAUCAGCAAUAUUACGUCUC | -2.46 ± 0.24 | -1.13 ± 0.24 |
| UAUCAGCAAUAUUACGUCUU | -1.65 ± 0.082 | -0.155 ± 0.091 |
| UAUCAGCAAUAUUACGUGUA | -0.198 ± 0.069 | 0.204 ± 0.079 |
| UAUCAGCAAUAUUACGUUCA | -0.267 ± 0.11 | 0.345 ± 0.15 |
| UAUCAGCAAUAUUACGUUCG | -0.844 ± 0.085 | 0.113 ± 0.11 |

| Sequence | self-splicing fitness (ln) (30 °C) | self-splicing fitness (ln) (37 °C) |
| --- | --- | --- |
| UAUCAGCAAUAUUACGUUCU | -2.22 ± 0.11 | -1.03 ± 0.13 |
| UAUCAGCAAUAUUACGUUGA | -2.15 ± 0.18 | -1.95 ± 0.18 |
| UAUCAGCAAUAUUACGUUUG | -1.4 ± 0.068 | -0.266 ± 0.092 |
| UAUGAGCAAUAUUACGAACA | -2.47 ± 0.24 | -0.662 ± 0.14 |
| UAUGAGCAAUAUUACGAUCC |  | -3.06 ± 0.47 |
| UAUGAGCAAUAUUACGAUUA | -0.445 ± 0.094 | 0.467 ± 0.093 |
| UAUGAGCAAUAUUACGAUUG | -1.94 ± 0.17 | -1.11 ± 0.2 |
| UAUGAGCAAUAUUACGCCCA | -2.3 ± 0.27 | 0.171 ± 0.49 |
| UAUGAGCAAUAUUACGCUCG | -2.09 ± 0.21 | -2.2 ± 0.35 |
| UAUGAGCAAUAUUACGGAAA | -1.13 ± 0.49 |  |
| UAUGAGCAAUAUUACGGAUA | -2 ± 0.23 | 0.104 ± 0.21 |
| UAUGAGCAAUAUUACGGCAG | -1.5 ± 0.25 | -0.674 ± 0.27 |
| UAUGAGCAAUAUUACGGCAU | -2.94 ± 0.27 | -2.05 ± 0.41 |
| UAUGAGCAAUAUUACGGGAA |  | -2.7 ± 0.41 |
| UAUGAGCAAUAUUACGGGAC |  | -1.11 ± 0.17 |
| UAUGAGCAAUAUUACGGGAU | -3.06 ± 0.21 | -2.35 ± 0.29 |
| UAUGAGCAAUAUUACGUACC | -2.28 ± 0.46 | -1.86 ± 0.43 |
| UAUGAGCAAUAUUACGUAGG | -4.19 ± 0.34 | -2.41 ± 0.21 |
| UAUGAGCAAUAUUACGUCGC | -4.2 ± 0.39 | -2.45 ± 0.39 |
| UAUGAGCAAUAUUACGUGAU | -3.04 ± 0.15 | -2.76 ± 0.25 |

— the supplement of paper PMC7877785
